# Measured values reported in patent publication US20250243290A1.
# Several values for one entry are separate records, joined by “and”; a condition that tells them apart may be missing. Identical values can stand only once.
# Key:
# [1] = molecular target: LS2…2RP; experiment: peptide-array ELISA
# [2] = molecular target: 2…2RPG; experiment: peptide-array ELISA
# [3] = molecular target: PE2LS2…2RP; experiment: peptide-array ELISA
# [4] = molecular target: LWNWVPE2…2T; experiment: peptide-array ELISA
# [5] = molecular target: LWNWVPE2…2; experiment: peptide-array ELISA
# [6] = molecular target: LS2…2RPG; experiment: peptide-array ELISA
# [7] = molecular target: 2LS2…2RPGW; experiment: peptide-array ELISA
# [8] = molecular target: …2RP; experiment: peptide-array ELISA
# [9] = molecular target: 2…2RP; experiment: peptide-array ELISA
# [10] = molecular target: E2LS2…2RP; experiment: peptide-array ELISA
# [11] = molecular target: VPE2LS2…2RP; experiment: peptide-array ELISA
# [12] = molecular target: …2…2RP; experiment: peptide-array ELISA
# [13] = molecular target: S2…2RPG; experiment: peptide-array ELISA
# [14] = molecular target: VPE2LSCGSR2…2; experiment: peptide-array ELISA
# [15] = molecular target: VPE2LS2…2TREQNRIC; experiment: peptide-array ELISA
# [16] = molecular target: WNWVPE2…2; experiment: peptide-array ELISA
# [17] = molecular target: CEQNRI2T2RPGWY2…2TSTSPTRC; experiment: peptide-array ELISA
# [18] = molecular target: S2…2RP; experiment: peptide-array ELISA
# [19] = molecular target: QEGCRL2…; experiment: peptide-array ELISA
# [20] = molecular target: LWNWVPE2…; experiment: peptide-array ELISA
# [21] = molecular target: E2LS2…2…2; experiment: peptide-array ELISA [Con't]
# [22] = molecular target: …2TREQNRIC; experiment: peptide-array ELISA [Con't]
# [23] = molecular target: CQTAQM22SK2…2RLC; experiment: peptide-array ELISA [Con't]
# [24] = molecular target: CDVV2KP2…2TSTSPTRC; experiment: peptide-array ELISA [Con't]
# [25] = molecular target: 2LSCGSR2…2T2; experiment: peptide-array ELISA [Con't]
# …2TREQNRIC, sequence (peptide, as listed by the source): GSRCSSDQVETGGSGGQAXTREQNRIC
# LWNWVPE2…, sequence (peptide, as listed by the source): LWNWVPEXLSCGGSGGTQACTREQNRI
# QEGCRL2…, sequence (peptide, as listed by the source): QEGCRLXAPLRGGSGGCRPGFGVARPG
substance,measurement,setting,value
agonistic TNFR2 antibody MR2-1,Raw luminescence data,[1],584
same,Raw luminescence data,[2],389
same,Raw luminescence data,[3],483
same,Raw luminescence data,[4],467
same,Raw luminescence data,[5],525
same,Raw luminescence data,[6],433
same,Raw luminescence data,[7],366
same,Raw luminescence data,[8],435 and 433
same,Raw luminescence data,[9],510
same,Raw luminescence data,[10],418
same,Raw luminescence data,[11],410
same,Raw luminescence data,[12],459
same,Raw luminescence data,[13],385
same,Raw luminescence data,[14],365
same,Raw luminescence data,[15],399
same,Raw luminescence data,[16],403
same,Raw luminescence data,[17],413
same,Raw luminescence data,[18],392
same,Raw luminescence data,[19],428
same,Raw luminescence data,[20],400
same,Raw luminescence data,[21],181
same,Raw luminescence data,[22],176
same,Raw luminescence data,[23],179
same,Raw luminescence data,[24],191
same,Raw luminescence data,[25],179
